The values that follow come from ChEMBL document CHEMBL1137932, “Synthesis of S-alkyl L-homocysteine analogues of glutathione and their kinetic studies with gamma-glutamyl transpeptidase” (Bioorg Med Chem Lett, 2004).

For series [1], the system named is NC(CC[S+]([O-])CCC(=O)NCC(=O)O)C(=O)O. Put plainly: (§1) Michaelis-Menten constant for Gamma-glutamyltranspeptidase in rat kidney.
The subject of series [2] is N[C@@H](CCS(=O)(=O)CCC(=O)NCC(=O)O)C(=O)O. The series is described as §1.

Sequence of Glutathione hydrolase 1 proenzyme (Rattus norvegicus), P07314 (P07314 whole entry): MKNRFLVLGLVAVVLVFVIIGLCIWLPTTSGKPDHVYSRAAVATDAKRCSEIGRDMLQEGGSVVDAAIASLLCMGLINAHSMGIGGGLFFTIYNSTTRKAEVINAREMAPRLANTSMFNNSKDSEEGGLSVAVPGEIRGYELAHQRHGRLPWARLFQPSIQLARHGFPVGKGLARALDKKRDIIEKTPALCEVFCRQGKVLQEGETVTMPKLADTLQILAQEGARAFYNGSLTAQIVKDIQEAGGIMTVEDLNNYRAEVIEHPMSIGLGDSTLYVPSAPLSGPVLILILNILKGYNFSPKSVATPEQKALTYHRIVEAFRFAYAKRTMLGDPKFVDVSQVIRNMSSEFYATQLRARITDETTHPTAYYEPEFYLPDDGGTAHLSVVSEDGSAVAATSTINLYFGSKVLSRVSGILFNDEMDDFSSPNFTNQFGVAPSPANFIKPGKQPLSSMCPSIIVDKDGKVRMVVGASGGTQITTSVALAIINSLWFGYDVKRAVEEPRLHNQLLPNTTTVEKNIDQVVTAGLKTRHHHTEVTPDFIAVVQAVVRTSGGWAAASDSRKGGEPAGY

On to “Glutathione hydrolase 1 proenzyme (Rattus norvegicus), P07314”, for which the values for the Km in series [1] and in series [2] were 500 µM and 590 µM, respectively.
